Experimental data taken from patent publication US8734776B2 (ZymoGenetics, Inc., priority 2003, dated 2014).
Where two headings read alike, the source gives them in different places.

Assays:
Human Daudi cells = test: Daudi cell proliferation (Alamar Blue); format: cell-based; details: 1000 ng/ml to 0.5 ng/ml; 72 h
Protocol: Human Daudi cells were suspended in RPMI+10% FBS at 50,000 cells/milliliter and 5000 cells were plated per well in a 96 well plate. […] IL-29-CEE was used at a concentration range of from 1000 ng/ml to 0.5 ng/ml. […] IFN-α2a was used at a concentration range of from 62 ng/ml to 0.03 ng/ml. Cells were incubated for 72 h at 37° C. […] Plates were farther incubated at 37° C., 5% CO2, for 24 hours.

[1] = system: human peripheral blood mononuclear cells; test: Induction of IL-28A, IL-29, IL-28B RNA in PBMCs by poly I:C and viral infection; details: poly I:C 100 μg/ml, 15 h
HCV replicon = details: replicon clones; IFNα at 10 IU/ml; cited from earlier work
IL-28RA mRNA = test: Semi-quantitative RT-PCR of IL-28RA, IFNAR2 and CRF2-4 mRNA; format: cell-based, human; details: HepG2 cells + cytokine
Protocol: In order to further examine the mRNA distribution for IL-28RA, semi-quantitative RT-PCR was performed using the SDS 7900HT system (Applied Biosystems, CA). One-step RT-PCR was performed using 100 ng total RNA for each sample and gene-specific primers. A standard curve was generated for each primer set using Bjab RNA and all sample values were normalized to HPRT. The normalized values for IFNAR2 and CRF2-4 are also shown.

dengue virus [2] = format: cell-based; details: Vero cells
HHV-8 = HHV-8 replication in BCBL-1 cells (TaqMan PCR)
vaccinia virus [3] = format: cell-based; details: Vero cells
[4] = system: ISG gene expression (OAS, Pkr, Mx1); test: ISG gene induction in liver, spleen and blood of injected mice; format: in vivo, mouse; details: C57BL/6 mice; i.p or i.v; 10 μg-250 μg
Protocol: In addition, E. coli derived IL-29 was also tested in in vivo assays as described above using MetIL-29C172S-PEG and MetIL-29-PEG. At various time points and at different doses, ISG gene induction was measured in the blood, spleen and livers of the mice.
Mice were sacrificed at various time points (1 hr-48 hr). Spleens and livers were isolated from mice, and RNA was isolated. RNA was also isolated from the blood cells. The cells were pelleted and RNA isolated from pellets using RNAEasy®-kit (Qiagen). RNA was treated with DNase (Amicon) to rid RNA of any contaminating DNA. cDNA was generated using Perkin-Elmer RT mix (Perkin-Elmer). ISG gene induction was measured by real-time PCR using primers and probes specific for mouse OAS, Pkr and M×1. To obtain quantitative data, HPRT real-time PCR was duplexed with ISG PCR. A standard curve was calculated using known amounts of IFN-stimulated mouse PBLs. All data are shown as expression relative to internal HPRT expression.
Results shown are fold expression relative to HPRT gene expression. […] The data shown is the average expression from 5 different animals/group.
Data shown is fold expression over HPRT expression from livers of mice. Similar data was obtained from blood and spleens of mice.

BVDV = BVDV CPE inhibition assay in MDBK cells; format: cell-based; details: MDBK bovine kidney cells
Protocol: IFNα and RIBAVIRIN® were used as positive controls. Test sample were added at the time of viral infection.

[5] = system: venezuelan equine encephalitis virus; format: cell-based; details: Vero cells
polio virus [6] = format: cell-based; details: Vero cells
polio virus [7] = format: cell-based; details: Vero cells; remark: listed apart in the source
coxsackie virus [8] = format: cell-based; details: Coxsackie B4 virus, KB cells
coxsackie virus [9] = format: cell-based; details: Coxsackie B4 virus, KB cells; remark: listed apart in the source
[10] = system: respiratory syncytial virus; format: cell-based; details: MA-104 cells
pichinde virus [11] = format: cell-based
rhino virus [12] = format: cell-based
OAS = OAS activity in serum and plasma of mice (RIA); details: C57BL/6 mice; i.v; 10 μg-250 μg
pichinde virus [13] = format: cell-based; remark: listed apart in the source
[14] = system: encephelomyocarditis virus; test: Antiviral assay: cytopathic effect in HeLa cells; format: cell-based, human
[15] = system: human Daudi B lymphoid cells; test: Induction of interferon-stimulated genes in Daudi cells (RT-PCR); format: cell-based; details: 72 hours, conditioned medium from Sf9 cells
Text: Interaction of type 1 interferons with their specific receptor leads to induction of a number of genes responsible for their antiviral/antiproliferative activity. These include 2′-5′ oligoadenylate synthetase (2-OAS), double-stranded RNA dependent Pkr kinase (Pkr), phospholipid scramblase, and intercellular adhesion molecule-1 (ICAM-1). Induction of genes with as yet unknown function, such as a 56 kDa interferon stimulated gene product (ISG-56k), also occurs. […] Conditioned medium from Sf9 cells infected with wild-type baculovirus was used as a negative control. Following treatment cells were collected and lysed for isolation of total RNA. One microgram of total RNA was converted to cDNA using reverse transcriptase and used as a template for polymerase chain reaction using oligonucleotide primers specific for the human interferon-stimulated genes described above. Oligonucleotide primers for human […] (G3PDH) were used as a non-interferon stimulated gene control.

[16] = system: venezuelan equine encephalitis virus; format: cell-based; details: Vero cells; remark: listed apart in the source
rhino virus [17] = format: cell-based; remark: listed apart in the source
adenovirus [18] = format: cell-based; details: A549 cells
parainfluenza virus [19] = format: cell-based; details: MA-104 cells
influenza virus [20] = format: cell-based; details: Influenza (type A [H3N2])
vaccinia virus [21] = format: cell-based; details: Vero cells; remark: listed apart in the source
[22] = system: encephelomyocarditis virus; test: Antiviral assay: cytopathic effect in L929 cells; format: cell-based, mouse
west nile virus [23] = format: cell-based; details: Vero cells
[24] = system: respiratory syncytial virus; format: cell-based; details: MA-104 cells; remark: listed apart in the source
dengue virus [25] = format: cell-based; details: Vero cells; remark: listed apart in the source
adenovirus [26] = format: cell-based; details: A549 cells; remark: listed apart in the source
influenza virus [27] = format: cell-based; details: Influenza (type A [H3N2]); remark: listed apart in the source
west nile virus [28] = format: cell-based; details: Vero cells; remark: listed apart in the source
parainfluenza virus [29] = format: cell-based; details: MA-104 cells; remark: listed apart in the source
[30] = Maden-Darby Canine Kidney cells

IL-29-CEE: IL-29 conjugated with glu tag
effect on proliferation of Daudi cells (Human Daudi cells): no significant effect

polyinosinic acid-polycytidylic acid [poly I:C]
amount of IL-28A, IL-29, IL-28B RNA [1]: increased

IFNα [reference compound]
reduction of the amount of HCV RNA compared to untreated control cell lines (HCV replicon): 85%
CRF2-4 mRNA normalized to HPRT (IL-28RA mRNA): 3.05
IFNAR2 mRNA normalized to HPRT (IL-28RA mRNA): 3.00
IL-28RA mRNA normalized to HPRT (IL-28RA mRNA): 2.61

B1: IL-28A: human IL-28A, previously designated zcyto20, SEQ ID NO:2 (protein, listed as Homo sapiens)
chain: MKLDMTGDCTPVLVLMAAVLTVTGAVPVARLHGALPDARGCHIAQFKSLSPQELQAFKRAKDALEESLLLKDCRCHSRLFPRTWDLRQLQVRERPMALEAELALTLKVLEATADTDPALVDVLDQPLHTLHHILSQFRACIQPQPTAGPRTRGRLHHWLYRLQEAPKKESPGCLEASVTFNLFRLLTRDLNCVASGDLCV
modifications: SIGNAL (1)...(25)
EC50 NR (dengue virus [2]): 0.1 µg/mL
IC50 NR (dengue virus [2]): >10 µg/mL
TI (TC50/IC50) (HHV-8): > 10
IC50 HHV-8 viral replication (HHV-8; extracellular HHV-8 DNA): 1 µg/mL
EC50 NR (vaccinia virus [3]): >10 µg/mL
IC50 NR (vaccinia virus [3]): >10 µg/mL
ISG gene expression (OAS, Pkr, Mx1) in the livers, spleen and blood of mice [4]: did not induce ISG gene expression
IC50 inhibition of cell death induced by BVDV (BVDV): 0.02 µg/mL
EC50 NR [5]: 0.035 µg/mL
IC50 NR [5]: >10 µg/mL
EC50 Visual (polio virus [6]): >10 µg/mL
IC50 Visual (polio virus [6]): >10 µg/mL
EC50 NR (polio virus [7]): >1.672 µg/mL
IC50 NR (polio virus [7]): >10 µg/mL
TC50 (BCBL-1 cells): > 10 µg/mL
EC50 Visual (coxsackie virus [8]): >10 µg/mL
IC50 Visual (coxsackie virus [8]): >10 µg/mL
EC50 NR (coxsackie virus [9]): >10 µg/mL
IC50 NR (coxsackie virus [9]): >10 µg/mL
EC50 NR [10]: >10 µg/mL
IC50 NR [10]: >10 µg/mL
EC50 Visual (pichinde virus [11]): >10 µg/mL
IC50 Visual (pichinde virus [11]): >10 µg/mL
EC50 Visual (rhino virus [12]; Rhino 2, KB cells): >10 µg/mL
IC50 Visual (rhino virus [12]; Rhino 2, KB cells): >10 µg/mL
EC50 Visual (rhino virus [12]; Rhino 9, HeLa cells): >10 µg/mL
IC50 Visual (rhino virus [12]; Rhino 9, HeLa cells): >10 µg/mL
OAS activity in the serum and plasma of mice (OAS): induced OAS activity
EC50 NR (pichinde virus [13]): >10 µg/mL
IC50 NR (pichinde virus [13]): >10 µg/mL
Percentage Cytopathic Effect ([14]; relative CM concentration .008X): 10%
Percentage Cytopathic Effect ([14]; relative CM concentration .0156X): 2.5%
Percentage Cytopathic Effect ([14]; relative CM concentration .0325X): 5%
Percentage Cytopathic Effect ([14]; relative CM concentration .0625X): 2.5%
Percentage Cytopathic Effect ([14]; relative CM concentration .125X): 0%
Percentage Cytopathic Effect ([14]; relative CM concentration .25X): 0%
Percentage Cytopathic Effect ([14]; relative CM concentration .5X): 0%
induction of ICAM-1 [15]: No induction
induction of ISG-56k, Pkr, 2-5 OAS and phospholipid scramblase [15]: clear induction
EC50 Visual [16]: 0.01 µg/mL
IC50 Visual [16]: >10 µg/mL
EC50 NR (rhino virus [17]; Rhino 2, KB cells): >10 µg/mL
IC50 NR (rhino virus [17]; Rhino 2, KB cells): >10 µg/mL
EC50 NR (rhino virus [17]; Rhino 9, HeLa cells): 1.726 µg/mL
IC50 NR (rhino virus [17]; Rhino 9, HeLa cells): >10 µg/mL
EC50 Visual (adenovirus [18]): >10 µg/mL
IC50 Visual (adenovirus [18]): >10 µg/mL
EC50 NR (parainfluenza virus [19]): >10 µg/mL
IC50 NR (parainfluenza virus [19]): >10 µg/mL
EC50 Visual (influenza virus [20]; [30]): >10 µg/mL
IC50 Visual (influenza virus [20]; [30]): >10 µg/mL
EC50 Visual (influenza virus [20]; Vero cells): 0.1 µg/mL
IC50 Visual (influenza virus [20]; Vero cells): >10 µg/mL
EC50 Visual (vaccinia virus [21]): >10 µg/mL
IC50 Visual (vaccinia virus [21]): >10 µg/mL
Percentage Cytopathic Effect ([22]; relative CM conc. .008X): 87%
Percentage Cytopathic Effect ([22]; relative CM conc. .0156X): 87%
Percentage Cytopathic Effect ([22]; relative CM conc. .0325X): 87%
Percentage Cytopathic Effect ([22]; relative CM conc. .0625X): 87%
Percentage Cytopathic Effect ([22]; relative CM conc. .125X): 87%
Percentage Cytopathic Effect ([22]; relative CM conc. .25X): 87%
Percentage Cytopathic Effect ([22]; relative CM conc. .5X): 87%
EC50 NR (west nile virus [23]): 0.1 ng/mL
IC50 NR (west nile virus [23]): >10 µg/mL
EC50 Visual [24]: >10 µg/mL
IC50 Visual [24]: >10 µg/mL
EC50 Visual (dengue virus [25]): 0.01 µg/mL
IC50 Visual (dengue virus [25]): >10 µg/mL
EC50 NR (adenovirus [26]): >10 µg/mL
IC50 NR (adenovirus [26]): >10 µg/mL
EC50 NR (influenza virus [27]; [30]): >10 µg/mL
IC50 NR (influenza virus [27]; [30]): >10 µg/mL
EC50 NR (influenza virus [27]; Vero cells): 0.25 µg/mL
IC50 NR (influenza virus [27]; Vero cells): >10 µg/mL
EC50 Visual (west nile virus [28]): 0.01 ng/mL
IC50 Visual (west nile virus [28]): >10 µg/mL
EC50 Visual (parainfluenza virus [29]): >10 µg/mL
IC50 Visual (parainfluenza virus [29]): >10 µg/mL
